Measurements taken from article PMC4579600, “Structure of HCMV glycoprotein B in the postfusion conformation bound to a neutralizing human antibody” (Nature Communications, 2015).
Where “and” joins values, the source holds several entries; their conditions need not be identical. Identical values can stand only once.

How the values were obtained:
[1] = biological target: HCMV glycoprotein B ectodomain ΔNgB-glyco (HCMV (Merlin strain)) (UniProt F5HB53)
[2] = biological target: 1G2 IgG (neutralizing human monoclonal antibody) (human); test: SPR
[3] = biological target: 1G2 IgG heavy chain F104A (human); test: SPR
[4] = biological target: 1G2 IgG heavy chain N102A (human); test: SPR
[5] = biological target: 1G2 IgG heavy chain R31S (human); test: SPR
[6] = biological target: 1G2 IgG heavy chain S32A (human); test: SPR
[7] = biological target: 1G2 IgG heavy chain Y103A (human); test: SPR
[8] = biological target: 1G2 IgG heavy chain Y109A (human); test: SPR
[9] = biological target: 1G2 IgG light chain R51A (human); test: SPR
[10] = biological target: 1G2 IgG light chain Y50A (human); test: SPR
full-length WT HCMV gB [11] = biological target: T1, full-length WT HCMV gB (HCMV (strain ), UniProt F5HB53); test: cell-based or functional assay
[12] = biological target: T2, HCMV glycoprotein B ectodomain gB-698glyco (Human cytomegalovirus, Merlin, UniProt F5HB53, Ile156His | His157Arg | Trp240Asn | Tyr242Thr | Cys246Ser | Arg457Ser | …); test: co-IP; soluble gB ectodomain (gB-698glyco) in 1% NP40, incubated with 10 μg 1G2 for 16 h at 4 °C, Dynabeads Protein A, blot with ITC88; conditions: both partners purified
T2 construct: also called postfusion gB; soluble gB ectodomain; source: CHO lec- cells, stably expressed, secreted, purified (Ni-NTA, SEC)

[13] = biological target: T3, HCMV virion gB (strain VR1814) (Human cytomegalovirus (HHV-5), strain …, UniProt Q69163, strain); test: co-IP; cushion-purified VR1814 virions (500 μg) lysed in 1% NP40, incubated with 10 μg 1G2 for 16 h at 4 °C, Dynabeads Protein A, blot with ITC88; conditions: one partner purified
T3 construct: also called gB from virions; source: cushion-purified VR1814 virions, lysed in 1% NP40

full-length WT HCMV gB [14] = biological target: T1, full-length WT HCMV gB; test: flow cytometry on cells; BHK cells electroporated with full-length gB RNA, surface stained with 1 μg antibody per sample, goat anti-human IgG Alexa Fluor 647; gated on viable, dsRNA+ cells; conditions: one partner purified

In the case of “1G2 IgG (neutralizing human monoclonal antibody)”, the neutralisation EC50, HCMV TB40/E infection of ARPE-19 epithelial cells [1] is reported as 0.1 µg/mL.

With “HCMV glycoprotein B ectodomain ΔNgB-glyco (from UniProt F5HB53 25-698) (domain or fragment)” the Kd [2] was 0.13 nM and 0.17 nM, the koff [2] was 3.75e-05 s⁻¹ and 6.36e-05 s⁻¹ and the kon [2] was 295000 M⁻¹ s⁻¹ and 370000 M⁻¹ s⁻¹. It also gave a Kd [3] of 1.53 nM, a koff [3] of 0.00045 s⁻¹ and a kon [3] of 294000 M⁻¹ s⁻¹. The Kd [4] was 1.71 nM, the koff [4] was 0.000526 s⁻¹ and the kon [4] was 306000 M⁻¹ s⁻¹. It also gave a Kd [5] of 0.22 nM, a koff [5] of 6.07e-05 s⁻¹ and a kon [5] of 273000 M⁻¹ s⁻¹. The Kd [6] was 0.03 nM, the koff [6] was 1.06e-05 s⁻¹ and the kon [6] was 396000 M⁻¹ s⁻¹. The Kd [7] was 2.36 nM, the koff [7] was 0.000766 s⁻¹ and the kon [7] was 325000 M⁻¹ s⁻¹. For the same molecule, the Kd [8] was 0.24 nM, the koff [8] was 7.67e-05 s⁻¹ and the kon [8] was 324000 M⁻¹ s⁻¹. For the same molecule, the Kd [9] was 0.16 nM, the koff [9] was 5.11e-05 s⁻¹ and the kon [9] was 327000 M⁻¹ s⁻¹. For the same molecule, the Kd [10] was 0.33 nM, the koff [10] was 0.000118 s⁻¹ and the kon [10] was 357000 M⁻¹ s⁻¹.

In the case of “ΔNgB-glyco E292A (from UniProt F5HB53 25-698) (domain or fragment)”, the Kd [2] is reported as 0.82 nM, the koff [2] is reported as 0.000108 s⁻¹ and the kon [2] is reported as 132000 M⁻¹ s⁻¹.

“ΔNgB-glyco F290A (from UniProt F5HB53 25-698) (domain or fragment)” was tested, and the Kd [2] was 3.79 nM, the koff [2] was 0.000249 s⁻¹ and the kon [2] was 66000 M⁻¹ s⁻¹.

With “ΔNgB-glyco F297A (from UniProt F5HB53 25-698) (domain or fragment)” the Kd [2] was 13.7 nM, the koff [2] was 0.000267 s⁻¹ and the kon [2] was 19000 M⁻¹ s⁻¹.

For “ΔNgB-glyco F298A (from UniProt F5HB53 25-698) (domain or fragment)”, the Kd [2] was 0.26 nM, the koff [2] was 5.59e-05 s⁻¹ and the kon [2] was 214000 M⁻¹ s⁻¹.

Molecule “ΔNgB-glyco I299A (from UniProt F5HB53 25-698) (domain or fragment)” has a Kd [2] of 0.58 nM, a koff [2] of 9e-05 s⁻¹ and a kon [2] of 155000 M⁻¹ s⁻¹.

“ΔNgB-glyco N281A (from UniProt F5HB53 25-698) (domain or fragment)” showed a Kd [2] of 0.21 nM, a koff [2] of 4.57e-05 s⁻¹ and a kon [2] of 218000 M⁻¹ s⁻¹.

Molecule “ΔNgB-glyco N284A (from UniProt F5HB53 25-698) (domain or fragment)” has a Kd [2] of 0.24 nM, a koff [2] of 7.66e-05 s⁻¹ and a kon [2] of 320000 M⁻¹ s⁻¹.

“ΔNgB-glyco N286A (from UniProt F5HB53 25-698) (domain or fragment)” gave a Kd [2] of 0.07 nM, a koff [2] of 4.89e-05 s⁻¹ and a kon [2] of 724000 M⁻¹ s⁻¹.

For “ΔNgB-glyco N293A/D295A (from UniProt F5HB53 25-698) (domain or fragment)”, the Kd [2] was 0.35 nM, the koff [2] was 8.43e-05 s⁻¹ and the kon [2] was 240000 M⁻¹ s⁻¹.

“ΔNgB-glyco T283A (from UniProt F5HB53 25-698) (domain or fragment)” showed a Kd [2] of 0.23 nM, a koff [2] of 6.99e-05 s⁻¹ and a kon [2] of 310000 M⁻¹ s⁻¹.

For “ΔNgB-glyco Y280A (from UniProt F5HB53 25-698) (domain or fragment)”, the Kd [2] was 29.3 nM, the koff [2] was 0.000195 s⁻¹ and the kon [2] was 7000 M⁻¹ s⁻¹.

In the case of “ΔNgB-glyco YND-AAA (Y280A/N293A/D295A) (from UniProt F5HB53 25-698) (domain or fragment)”, the Kd [2] is reported as 18.7 nM, the koff [2] is reported as 0.000392 s⁻¹ and the kon [2] is reported as 21000 M⁻¹ s⁻¹.

B1: 1G2 IgG (neutralizing human monoclonal antibody) (antibody, V domains shown)
VH: QLQLQESGPGLVKPSETLSLTCTVSGASIDRSTYYWGWIRQPPGKGLEWIANIYYNGRAVYSPSLKSRVTISVDTSKNQFSLKVRSLTAADTAVYYCATRWNYFFDFDYWGRGTLVTVSS
VL: QSVLTQPPSASGTPGQRVTISCSGSSSNIETNYVSWYQQFPGTAPKLLIYRNNQRPSGVPDRFSGSKSGTSASLAISGLRSEDEAEYYCGTWDDNSWVFGGGTKLTVL
notes: IgG1; also called 1G2 mAb; WT 1G2
With B1 the “neutralisation EC50, gB on virus of HCMV strain 8816 (Ala287), ARPE-19 cells” value (full-length WT HCMV gB [11]) was 0.046 µg/mL, the “neutralisation EC50, gB on virus of HCMV strain 8819 (Ala287), ARPE-19 cells” value (full-length WT HCMV gB [11]) was 0.485 µg/mL and the “neutralisation EC50, gB on virus of HCMV strain 8819 (Ala287), NHDF cells” value (full-length WT HCMV gB [11]) was 0.85 µg/mL. The “neutralisation EC50, gB on virus of HCMV strain 8822 (Ala287), ARPE-19 cells” value (full-length WT HCMV gB [11]) was 0.319 µg/mL, the “neutralisation EC50, gB on virus of HCMV strain 8822 (Ala287), NHDF cells” value (full-length WT HCMV gB [11]) was 0.485 µg/mL and the “neutralisation EC50, gB on virus of HCMV strain 8824 (Ala287), ARPE-19 cells” value (full-length WT HCMV gB [11]) was 0.019 µg/mL. For the same molecule, the “neutralisation EC50, gB on virus of HCMV strain 8824 (Ala287), NHDF cells” value (full-length WT HCMV gB [11]) was 0.043 µg/mL, the “neutralisation EC50, gB on virus of HCMV strain TM-28175 (Ala287), NHDF cells” value (full-length WT HCMV gB [11]) was 0.138 µg/mL and the “neutralisation EC50, gB on virus of HCMV strain TR (Ala287), ARPE-19 cells” value (full-length WT HCMV gB [11]) was 0.248 µg/mL. For the same molecule, the “neutralisation EC50, gB on virus of HCMV strain TR (Ala287), NHDF cells” value (full-length WT HCMV gB [11]) was 0.303 µg/mL, the binding result [12] was “binds” and the binding result [13] was “binds”. B1: binds (full-length WT HCMV gB [14]).
